Data on ten molecules can be found in US20240317859A1 (published 2024).

Experiment [1] has as its target T1, FcγRIIB/C (CD32b/c) (FcγRIIB) (R&D Systems) (UniProt P31994 46-217).
T1 chain: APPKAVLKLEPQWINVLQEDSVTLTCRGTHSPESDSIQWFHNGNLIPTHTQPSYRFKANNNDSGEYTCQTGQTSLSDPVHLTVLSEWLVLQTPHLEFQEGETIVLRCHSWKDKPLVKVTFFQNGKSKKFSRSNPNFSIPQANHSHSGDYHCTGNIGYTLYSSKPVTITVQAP
In words: SPR. Background: In SPR one partner is held on a chip, and binding of the other changes the refractive index at the surface.

The target in experiment [2] is Fc gamma RIIIA/CD16a, CF (FcγRIIIA(V158)) (R&D Systems). In words: SPR.
Fc gamma RIIIA/CD16a, CF (FcγRIIIA(V158)) (R&D Systems), sequence (chain, as listed by the source): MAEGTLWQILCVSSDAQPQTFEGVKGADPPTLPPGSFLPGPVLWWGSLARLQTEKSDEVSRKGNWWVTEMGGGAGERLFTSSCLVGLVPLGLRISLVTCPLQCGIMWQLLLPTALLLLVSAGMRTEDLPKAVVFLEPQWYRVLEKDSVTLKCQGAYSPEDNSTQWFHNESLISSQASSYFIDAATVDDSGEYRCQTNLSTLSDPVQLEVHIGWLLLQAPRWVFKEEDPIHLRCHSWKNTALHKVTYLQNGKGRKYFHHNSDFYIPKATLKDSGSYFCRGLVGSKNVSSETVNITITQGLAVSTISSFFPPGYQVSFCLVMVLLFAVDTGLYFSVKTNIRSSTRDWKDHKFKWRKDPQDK

B1: X4-K HM297-H5 (antibody)
chain 1: QVQLVQSGPEVKKPGASVKIPCKASGYTFTDYNVDWVRQVPGQGLEWMGDIDPNNGGTIYNQKFKDRVTMTVDKSTRTAYMELRSLRSDDTAVYYCARWRGAMDYWGQGTLVTVSSASTKGPSVFPLAPSSKSTSGGTAALGCLVKDYFPEPVTVSWNSGALTSGVHTFPAVLQSSGLYSLSSVVTVPSSSLGTQTYICNVNHKPSNTKVDKKVEPKSCDKTHTCPPCPAPELLGGPDVFLFPPKPKDTLMISRTPEVTCVVVDVSDEDPEVKFNWYVDGVEVHNAKTKPREEQYNSTYRVVSVLTVLHQDWLNGKEYKCAVSNKAYPAPEEKTISKAKGQPREPQVYTLPPSRDELTKNQVSLTCLVKGFYPSDIAVEWESNGQPENNYKTTPPVLDSDGSFFLYSKLTVDKSRWQQGNVFSCSVMHEALHNHYTQKSLSLSPGK
chain 2: DIQMTQSPSSLSASVGDRVTITCRASQDIDNYLKWYQQKPDGTVKLLIYDTSRLHSGVPSRFSGSGSGTDYTLTISSLKQEDFATYYCQQGYTLPWTFGQGTKLEIKRTVAAPSVFIFPPSDEQLKSGTASVVCLLNNFYPREAKVQWKVDNALQSGNSQESVTEQDSKDSTYSLSSTLTLSKADYEKHKVYACEVTHQGLSSPVTKSFNRGEC
A word on the Kd: it is the free concentration of one partner at which half of the binding sites on the other are occupied at equilibrium, for simple one-to-one binding. A low value points to a tighter complex. In the case of B1, the Kd in experiment [1] turned out to be 1250 nM; in experiment [2], 3030 nM.

B2: X2-K HM297-H5 (antibody)
chain 1: QVQLVQSGPEVKKPGASVKIPCKASGYTFTDYNVDWVRQVPGQGLEWMGDIDPNNGGTIYNQKFKDRVTMTVDKSTRTAYMELRSLRSDDTAVYYCARWRGAMDYWGQGTLVTVSSASTKGPSVFPLAPSSKSTSGGTAALGCLVKDYFPEPVTVSWNSGALTSGVHTFPAVLQSSGLYSLSSVVTVPSSSLGTQTYICNVNHKPSNTKVDKKVEPKSCDKTHTCPPCPAPELLDGPSVFLFPPKPKDTLMISRTPEVTCVVVDVSDEDPEVKFNWYVDGVEVHNAKTKPREEQYNSTYRVVSVLTVLHQDWLNGKEYKCAVSNKALPAPIEKTISKAKGQPREPQVYTLPPSRDELTKNQVSLTCLVKGFYPSDIAVEWESNGQPENNYKTTPPVLDSDGSFFLYSKLTVDKSRWQQGNVFSCSVMHEALHNHYTQKSLSLSPGK
chain 2: DIQMTQSPSSLSASVGDRVTITCRASQDIDNYLKWYQQKPDGTVKLLIYDTSRLHSGVPSRFSGSGSGTDYTLTISSLKQEDFATYYCQQGYTLPWTFGQGTKLEIKRTVAAPSVFIFPPSDEQLKSGTASVVCLLNNFYPREAKVQWKVDNALQSGNSQESVTEQDSKDSTYSLSSTLTLSKADYEKHKVYACEVTHQGLSSPVTKSFNRGEC
For the molecule B2, the Kd turned out to be 1290 nM in experiment [1] and 5220 nM in experiment [2].

B3: X3-KS HM268-K8 (antibody)
chain 1: QVQLVQSGPEVKKPGASVKVVCKTSGYTFTSYYIQWLKQRPGQGLEWIGWIYFGDASTKYNEKFKGRVTMTADKSTSTAYMELRSLRSDDTAVYYCASYYGSYFDYWGQGTTVTVSSASTKGPSVFPLAPSSKSTSGGTAALGCLVKDYFPEPVTVSWNSGALTSGVHTFPAVLQSSGLYSLSSVVTVPSSSLGTQTYICNVNHKPSNTKVDKKVEPKSCDKTHTCPPCPAPELLGGPDVFLFPPKPKDTLMISRTPEVTCVVVDVGDEDPEVKFNWYVDGVEVHNAKTKPREEQYNSTYRVVSVLTVLHQDWLNGKEYKCAVSNKALPAPIEKTISKAKGQPREPQVYTLPPSRDELTKNQVSLTCLVKGFYPSDIAVEWESNGQPENNYKTTPPVLDSDGSFFLYSKLTVDKSRWQQGNVFSCSVMHEALHNHYTQKSLSLSPGK
chain 2: DIQMTQSPSSLSASVGDRVTITCRASQDISNYLNWYQQKPDGTVKLLIYSTSRLHSGVPSRFSGSGSGTDYTLTISSLQPEDFATYYCQQGSTLPFTFGQGTKLEIKRTVAAPSVFIFPPSDEQLKSGTASVVCLLNNFYPREAKVQWKVDNALQSGNSQESVTEQDSKDSTYSLSSTLTLSKADYEKHKVYACEVTHQGLSSPVTKSFNRGEC
The molecule B3 yielded a Kd in experiment [1] of 2540 nM.

B4: X3-KS HM297-H5 (antibody)
chain 1: QVQLVQSGPEVKKPGASVKIPCKASGYTFTDYNVDWVRQVPGQGLEWMGDIDPNNGGTIYNQKFKDRVTMTVDKSTRTAYMELRSLRSDDTAVYYCARWRGAMDYWGQGTLVTVSSASTKGPSVFPLAPSSKSTSGGTAALGCLVKDYFPEPVTVSWNSGALTSGVHTFPAVLQSSGLYSLSSVVTVPSSSLGTQTYICNVNHKPSNTKVDKKVEPKSCDKTHTCPPCPAPELLGGPDVFLFPPKPKDTLMISRTPEVTCVVVDVGDEDPEVKFNWYVDGVEVHNAKTKPREEQYNSTYRVVSVLTVLHQDWLNGKEYKCAVSNKALPAPIEKTISKAKGQPREPQVYTLPPSRDELTKNQVSLTCLVKGFYPSDIAVEWESNGQPENNYKTTPPVLDSDGSFFLYSKLTVDKSRWQQGNVFSCSVMHEALHNHYTQKSLSLSPGK
chain 2: DIQMTQSPSSLSASVGDRVTITCRASQDIDNYLKWYQQKPDGTVKLLIYDTSRLHSGVPSRFSGSGSGTDYTLTISSLKQEDFATYYCQQGYTLPWTFGQGTKLEIKRTVAAPSVFIFPPSDEQLKSGTASVVCLLNNFYPREAKVQWKVDNALQSGNSQESVTEQDSKDSTYSLSSTLTLSKADYEKHKVYACEVTHQGLSSPVTKSFNRGEC
In experiment [1], B4 showed a Kd of 1430 nM.

B5: X2-K HM242-D3 (antibody)
chain 1: QVQLVQSGPEVKKPGASVKVVCKASGYTFTSYYIQWVRQVPGQGLEWMGWIYPGDGTTKYNEKFKGRVTMTIDTSTSTAYMELRSLRSDDTAVYYCASYYGSYFDYWGQGTLVTVSSASTKGPSVFPLAPSSKSTSGGTAALGCLVKDYFPEPVTVSWNSGALTSGVHTFPAVLQSSGLYSLSSVVTVPSSSLGTQTYICNVNHKPSNTKVDKKVEPKSCDKTHTCPPCPAPELLDGPSVFLFPPKPKDTLMISRTPEVTCVVVDVSDEDPEVKFNWYVDGVEVHNAKTKPREEQYNSTYRVVSVLTVLHQDWLNGKEYKCAVSNKALPAPIEKTISKAKGQPREPQVYTLPPSRDELTKNQVSLTCLVKGFYPSDIAVEWESNGQPENNYKTTPPVLDSDGSFFLYSKLTVDKSRWQQGNVFSCSVMHEALHNHYTQKSLSLSPGK
chain 2: not shown
Turning to B5, the equilibrium dissociation constant (Kd) in experiment [1] was found to be 1250 nM; in experiment [2] it was 4270 nM.

B6: X4-K HM242-D3 (antibody)
chain 1: QVQLVQSGPEVKKPGASVKVVCKASGYTFTSYYIQWVRQVPGQGLEWMGWIYPGDGTTKYNEKFKGRVTMTIDTSTSTAYMELRSLRSDDTAVYYCASYYGSYFDYWGQGTLVTVSSASTKGPSVFPLAPSSKSTSGGTAALGCLVKDYFPEPVTVSWNSGALTSGVHTFPAVLQSSGLYSLSSVVTVPSSSLGTQTYICNVNHKPSNTKVDKKVEPKSCDKTHTCPPCPAPELLGGPDVFLFPPKPKDTLMISRTPEVTCVVVDVSDEDPEVKFNWYVDGVEVHNAKTKPREEQYNSTYRVVSVLTVLHQDWLNGKEYKCAVSNKAYPAPEEKTISKAKGQPREPQVYTLPPSRDELTKNQVSLTCLVKGFYPSDIAVEWESNGQPENNYKTTPPVLDSDGSFFLYSKLTVDKSRWQQGNVFSCSVMHEALHNHYTQKSLSLSPGK
chain 2: not shown
B6: the Kd stood at 957 nM in experiment [1] and 244 nM in experiment [2].

B7: X3-KS HM242-C3 (antibody)
chain 1: QVQLVQSGPEVKKPGASVKVVCKASGYTFTSYYIQWVKQRPGQGLEWIGWIYPGDGTTKYNEKFKGRVTMTIDKSTRTAYMELRSLRSDDTAVYYCASYYGSYFDYWGQGTLVTVSSASTKGPSVFPLAPSSKSTSGGTAALGCLVKDYFPEPVTVSWNSGALTSGVHTFPAVLQSSGLYSLSSVVTVPSSSLGTQTYICNVNHKPSNTKVDKKVEPKSCDKTHTCPPCPAPELLGGPDVFLFPPKPKDTLMISRTPEVTCVVVDVGDEDPEVKFNWYVDGVEVHNAKTKPREEQYNSTYRVVSVLTVLHQDWLNGKEYKCAVSNKALPAPIEKTISKAKGQPREPQVYTLPPSRDELTKNQVSLTCLVKGFYPSDIAVEWESNGQPENNYKTTPPVLDSDGSFFLYSKLTVDKSRWQQGNVFSCSVMHEALHNHYTQKSLSLSPGK
chain 2: not shown
Take B7: the Kd in experiment [1] was determined as 1660 nM.

B8: X4-K HM242-C3 (antibody)
chain 1: QVQLVQSGPEVKKPGASVKVVCKASGYTFTSYYIQWVKQRPGQGLEWIGWIYPGDGTTKYNEKFKGRVTMTIDKSTRTAYMELRSLRSDDTAVYYCASYYGSYFDYWGQGTLVTVSSASTKGPSVFPLAPSSKSTSGGTAALGCLVKDYFPEPVTVSWNSGALTSGVHTFPAVLQSSGLYSLSSVVTVPSSSLGTQTYICNVNHKPSNTKVDKKVEPKSCDKTHTCPPCPAPELLGGPDVFLFPPKPKDTLMISRTPEVTCVVVDVSDEDPEVKFNWYVDGVEVHNAKTKPREEQYNSTYRVVSVLTVLHQDWLNGKEYKCAVSNKAYPAPEEKTISKAKGQPREPQVYTLPPSRDELTKNQVSLTCLVKGFYPSDIAVEWESNGQPENNYKTTPPVLDSDGSFFLYSKLTVDKSRWQQGNVFSCSVMHEALHNHYTQKSLSLSPGK
chain 2: not shown
Regarding B8, the Kd in experiment [1] is 606 nM; in experiment [2], 143 nM.

B9: X3-KS HM242-D3 (antibody)
chain 1: QVQLVQSGPEVKKPGASVKVVCKASGYTFTSYYIQWVRQVPGQGLEWMGWIYPGDGTTKYNEKFKGRVTMTIDTSTSTAYMELRSLRSDDTAVYYCASYYGSYFDYWGQGTLVTVSSASTKGPSVFPLAPSSKSTSGGTAALGCLVKDYFPEPVTVSWNSGALTSGVHTFPAVLQSSGLYSLSSVVTVPSSSLGTQTYICNVNHKPSNTKVDKKVEPKSCDKTHTCPPCPAPELLGGPDVFLFPPKPKDTLMISRTPEVTCVVVDVGDEDPEVKFNWYVDGVEVHNAKTKPREEQYNSTYRVVSVLTVLHQDWLNGKEYKCAVSNKALPAPIEKTISKAKGQPREPQVYTLPPSRDELTKNQVSLTCLVKGFYPSDIAVEWESNGQPENNYKTTPPVLDSDGSFFLYSKLTVDKSRWQQGNVFSCSVMHEALHNHYTQKSLSLSPGK
chain 2: not shown
In experiment [1], B9 returned a Kd of 2740 nM.

B10: X2-K HM242-C3 (antibody)
chain 1: QVQLVQSGPEVKKPGASVKVVCKASGYTFTSYYIQWVKQRPGQGLEWIGWIYPGDGTTKYNEKFKGRVTMTIDKSTRTAYMELRSLRSDDTAVYYCASYYGSYFDYWGQGTLVTVSSASTKGPSVFPLAPSSKSTSGGTAALGCLVKDYFPEPVTVSWNSGALTSGVHTFPAVLQSSGLYSLSSVVTVPSSSLGTQTYICNVNHKPSNTKVDKKVEPKSCDKTHTCPPCPAPELLDGPSVFLFPPKPKDTLMISRTPEVTCVVVDVSDEDPEVKFNWYVDGVEVHNAKTKPREEQYNSTYRVVSVLTVLHQDWLNGKEYKCAVSNKALPAPIEKTISKAKGQPREPQVYTLPPSRDELTKNQVSLTCLVKGFYPSDIAVEWESNGQPENNYKTTPPVLDSDGSFFLYSKLTVDKSRWQQGNVFSCSVMHEALHNHYTQKSLSLSPGK
chain 2: not shown
For the molecule B10, the Kd in experiment [1] came to 1210 nM.
